From PMC6527163, “Proteomic discovery of substrates of the cardiovascular protease ADAMTS7” (The Journal of Biological Chemistry, 2019) come the findings set out here.

The assay concerns the target T1, ADAMTS7-T8 (human, UniProt Q9UKP4 237-1630).
T1 construct: signal peptide in the construct; human ADAMTS7 cDNA including the native signal peptide, truncated after Pro-1630 (T8); The construct is made as a zymogen; The stated enzyme concentrations are active protease, found by active-site titration with TIMP-4; also called purified ADAMTS7-T8; source: HEK cells stably expressing ADAMTS7-T8, conditioned medium, purified (anion exchange chromatography, gel …)
T1 sequence (looked up): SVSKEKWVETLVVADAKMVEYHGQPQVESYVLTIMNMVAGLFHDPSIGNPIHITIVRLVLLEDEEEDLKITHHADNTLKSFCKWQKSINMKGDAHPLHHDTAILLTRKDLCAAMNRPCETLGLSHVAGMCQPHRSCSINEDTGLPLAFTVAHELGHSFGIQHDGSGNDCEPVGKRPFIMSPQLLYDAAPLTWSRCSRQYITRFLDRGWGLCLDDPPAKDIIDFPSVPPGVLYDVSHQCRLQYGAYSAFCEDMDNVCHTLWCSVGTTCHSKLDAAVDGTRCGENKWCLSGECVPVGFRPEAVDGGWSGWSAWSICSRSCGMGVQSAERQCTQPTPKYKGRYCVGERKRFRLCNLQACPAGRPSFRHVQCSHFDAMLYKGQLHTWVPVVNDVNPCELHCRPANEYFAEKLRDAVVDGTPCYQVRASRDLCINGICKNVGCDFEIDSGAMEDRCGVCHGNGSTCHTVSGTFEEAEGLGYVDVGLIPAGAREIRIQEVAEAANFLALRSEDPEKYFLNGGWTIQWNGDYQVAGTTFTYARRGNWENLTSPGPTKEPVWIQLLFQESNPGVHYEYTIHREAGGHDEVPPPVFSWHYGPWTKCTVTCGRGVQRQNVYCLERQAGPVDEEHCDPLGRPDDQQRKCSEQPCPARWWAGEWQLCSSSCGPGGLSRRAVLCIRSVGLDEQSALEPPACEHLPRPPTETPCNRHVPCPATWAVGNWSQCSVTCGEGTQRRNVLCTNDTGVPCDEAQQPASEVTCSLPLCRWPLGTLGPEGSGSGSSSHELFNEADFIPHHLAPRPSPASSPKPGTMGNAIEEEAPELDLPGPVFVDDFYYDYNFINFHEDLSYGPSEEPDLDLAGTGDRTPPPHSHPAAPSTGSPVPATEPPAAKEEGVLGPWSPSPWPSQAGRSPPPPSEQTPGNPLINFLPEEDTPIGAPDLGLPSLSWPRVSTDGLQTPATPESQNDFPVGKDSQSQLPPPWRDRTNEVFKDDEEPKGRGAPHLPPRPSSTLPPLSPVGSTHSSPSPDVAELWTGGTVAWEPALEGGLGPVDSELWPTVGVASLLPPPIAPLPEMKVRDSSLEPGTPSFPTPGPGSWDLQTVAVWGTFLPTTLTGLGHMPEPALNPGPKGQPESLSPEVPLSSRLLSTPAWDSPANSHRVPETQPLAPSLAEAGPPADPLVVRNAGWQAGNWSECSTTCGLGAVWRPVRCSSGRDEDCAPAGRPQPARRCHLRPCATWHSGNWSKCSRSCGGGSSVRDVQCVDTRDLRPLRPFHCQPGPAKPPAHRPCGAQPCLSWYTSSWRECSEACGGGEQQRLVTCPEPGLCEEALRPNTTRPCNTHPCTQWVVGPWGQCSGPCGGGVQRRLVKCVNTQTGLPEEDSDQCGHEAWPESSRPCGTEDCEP
The assay can be described thus: enzyme inhibition assay (densitometry of LTBP4S-A cleavage on SDS-PAGE/Coomassie Blue); apparent Ki; TIMP (1.75-60 nM) pre-incubated with ADAMTS7-T8 for 1 h at 37 °C, then 18 nM ADAMTS7 and 10 μM LTBP4S-A for 17 h at 37 °C; 20 mM Tris, pH 7.5, 150 mM NaCl, 10 mM CaCl2. Particulars: both partners purified.

B1: TIMP-3 (natural protein, human, UniProt P35625 24-211, looked up)
chain: CTCSPSHPQDAFCNSDIVIRAKVVGKKLVKEGPFGTLVYTIKQMKMYRGFTKMPHVQYIHTEASESLCGLKLEVNKYQYLLTGRVYDGKMYTGLCNFVERWDQLTLSQRKGLNYRYHLGCNCKIKSCYYLPCFVTSKNECLWTDMLSNFGYPGYQSKHYACIRQKGGYCSWYRGWAPPDKSIINATDP
notes: recombinant human TIMP-3 (R&D Systems); No catalogue number or tags are stated; source: bought: R&D Systems (recombinant human)
As to B1, the Ki was found to be 49 nM.

B2: TIMP-4 (natural protein, human, UniProt Q99727 30-224, looked up)
chain: CSCAPAHPQQHICHSALVIRAKISSEKVVPASADPADTEKMLRYEIKQIKMFKGFEKVKDVQYIYTPFDSSLCGVKLEANSQKQYLLTGQVLSDGKVFIHLCNYIEPWEDLSLVQRESLNHHYHLNCGCQITTCYTVPCTISAPNECLWTDWLLERKLYGYQAQHYVCMKHVDGTCSWYRGHLPLRKEFVDIVQP
notes: recombinant human TIMP-4 (R&D Systems); No catalogue number or tags are stated; source: bought: R&D Systems (recombinant human)
In the case of B2, the Ki worked out at 13 nM.
